Source: patent US20040014670A1 (AJINOMOTO, published 2004)

Experiments:
[1] = target: rabbit pulmonal angiotensin converting enzyme (Sigma) (rabbit) (UniProt P12822); test: cell-based or functional assay
[2] = target: T1, rabbit pulmonal angiotensin converting enzyme (Sigma) (rabbit, UniProt P12822 34-1310, limits assumed); test: cell-based or functional assay
T1 sequence (looked up): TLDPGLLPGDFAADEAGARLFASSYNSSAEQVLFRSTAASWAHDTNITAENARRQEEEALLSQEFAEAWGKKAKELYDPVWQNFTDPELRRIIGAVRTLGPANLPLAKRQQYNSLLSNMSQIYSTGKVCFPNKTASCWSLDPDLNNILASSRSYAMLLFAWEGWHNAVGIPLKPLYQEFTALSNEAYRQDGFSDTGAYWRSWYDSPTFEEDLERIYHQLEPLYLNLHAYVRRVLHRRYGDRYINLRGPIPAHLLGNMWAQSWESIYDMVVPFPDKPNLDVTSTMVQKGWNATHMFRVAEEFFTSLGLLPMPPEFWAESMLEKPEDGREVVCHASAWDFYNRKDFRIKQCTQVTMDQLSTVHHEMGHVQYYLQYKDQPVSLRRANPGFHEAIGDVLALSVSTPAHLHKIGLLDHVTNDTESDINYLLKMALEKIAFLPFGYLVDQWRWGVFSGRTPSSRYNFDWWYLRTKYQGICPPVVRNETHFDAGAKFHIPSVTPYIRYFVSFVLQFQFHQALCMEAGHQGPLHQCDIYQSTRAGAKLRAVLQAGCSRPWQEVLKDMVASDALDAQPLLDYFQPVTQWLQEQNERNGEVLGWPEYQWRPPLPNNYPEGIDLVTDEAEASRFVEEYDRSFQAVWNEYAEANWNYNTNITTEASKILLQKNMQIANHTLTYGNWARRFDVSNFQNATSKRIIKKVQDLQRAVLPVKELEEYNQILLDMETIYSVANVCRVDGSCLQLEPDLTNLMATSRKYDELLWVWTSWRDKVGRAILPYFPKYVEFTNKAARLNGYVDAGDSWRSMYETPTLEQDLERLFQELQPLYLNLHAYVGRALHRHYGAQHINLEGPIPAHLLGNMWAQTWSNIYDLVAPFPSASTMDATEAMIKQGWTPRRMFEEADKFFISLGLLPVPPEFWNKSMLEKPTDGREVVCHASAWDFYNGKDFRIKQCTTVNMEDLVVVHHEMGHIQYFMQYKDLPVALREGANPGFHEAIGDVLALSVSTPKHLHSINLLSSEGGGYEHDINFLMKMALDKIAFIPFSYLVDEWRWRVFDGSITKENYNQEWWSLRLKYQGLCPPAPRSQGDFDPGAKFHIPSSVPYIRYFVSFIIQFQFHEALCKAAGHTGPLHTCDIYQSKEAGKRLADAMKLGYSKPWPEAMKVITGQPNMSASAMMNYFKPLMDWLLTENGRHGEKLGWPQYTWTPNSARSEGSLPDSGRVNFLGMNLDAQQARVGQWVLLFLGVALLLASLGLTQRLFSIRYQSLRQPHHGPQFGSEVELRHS

Row | Molecule | IC50 (µM), inhibition of angiotensin converting enzyme activity (colorimetry at 505 nm, substrate p-hydroxyl benzoyl glycyl-L-histidyl-L-leucine) [2] | further results
1 | soybean protein hydrolysates prepared with protease D3 |  | IC50 value, the concentration for 50% inhibition against ACE [1]: 180 µg/mL
2 | Bradykinin potentiator C (peptide) |  | IC50 (µM), inhibition of angiotensin converting enzyme activity (colorimetry at 505 nm, substrate p-hydroxyl benzoyl glycyl-L-histidyl-L-leucine) [1]: 35 µM
3 | NWGPLV [Asn-Trp-Gly-Pro-Leu-Val] | 21 µM | 
4 | PNNKPFQ [Pro-Asn-Asn-Lys-Pro-Phe-Gln] | 33 µM | 
5 | IPPGVPYWT [Ile-Pro-Pro-Gly-Val-Pro-Tyr-Trp-Thr] | 64 µM | 
